The text below walks through data of paper PMC3331940.

This assay deals with Cdk4/cyclin D1 complex (UniProt P11802).
Take “p27-KID^(pY88, Y89F) (domain or fragment)”: the maximal extent of Cdk4 inhibition at saturating concentrations came out at 95%.
The result for “p27-KID^(Y74E, Y89F) (domain or fragment)” reads 98%; that for “p27-KID^(pY74, pY88, Y89F) (domain or fragment)”, 80%.
